Test results from US20130079286A1 (Pieris, published 2013).

T1: ovalbumin (UniProt P01012 2-386)
T1 sequence (looked up): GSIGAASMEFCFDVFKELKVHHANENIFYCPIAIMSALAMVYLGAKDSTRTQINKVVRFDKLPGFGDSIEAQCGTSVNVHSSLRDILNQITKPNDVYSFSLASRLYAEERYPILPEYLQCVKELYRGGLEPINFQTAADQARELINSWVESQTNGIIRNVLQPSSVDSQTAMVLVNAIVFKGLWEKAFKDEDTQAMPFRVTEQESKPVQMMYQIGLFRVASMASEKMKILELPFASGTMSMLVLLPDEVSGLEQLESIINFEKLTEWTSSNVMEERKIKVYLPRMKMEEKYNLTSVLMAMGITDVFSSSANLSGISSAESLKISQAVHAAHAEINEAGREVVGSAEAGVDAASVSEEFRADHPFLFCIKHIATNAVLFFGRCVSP

B1: Lcn2 mutein N7A (designed binder)
chain: QDSTSDLIPAPPLSKVPLQQNFQDNQFHGKWYVVGKAGNHDLREDKDPRKMQATIYELKEDKSYNVTNVRFVHKKCNYRIWTFVPGSQPGEFTLGNIKSWPGLTSWLVRVVSTNYNQHAMVFFKRVYQNRELFEITLYGRTKELTNELKENFIRFSKSLGLPENHIVFPVPIDQCIDG
B2: Lcn2 mutein N10D (designed binder)
chain: QDSTSDLIPAPPLSKVPLQQNFQDNQFHGKWYVVGAAGNTWLREDKDPYKMQATIYELKEDKSYNVTNVLFMSKKCRYMIHTFVPGSQPGEFTLGSIKSWPGLTSWLVRVVSTNYNQHAMVFFKRVYQNREFFGITLYGRTKELTSELKENFIRFSKSLGLPENHIVFPVPIDQCIDG
notes: also called NIOD; NI OD
B3: Lcn2 mutein H1-G1 (designed binder)
chain: QDSTSDLIPAPPLSKVPLQQNFQDNQFHGKWYVVGCAGNVLLREDKDPLKMYATIYELKEDKSYNVTSVGFDDKKCLYKIRTFVPGSQPGEFTLGRIKSEPGGTSWLVRVVSTNYNQHAMVFFKEVAQNRETFNITLYGRTKELTSELKENFIRFSKSLGLPENHIVFPVPIDQCIDG
notes: carries a free Cys at position 36
B4: Lcn2 mutein N7E (designed binder)
chain: QDSTSDLIPAPPLSKVPLQQNFQDNQFHGKWYVVGEAGNSLLREDKDPRKMYATIYELKEDKSYNVTSVRFRSKKCHYLIRTFVPGSQPGEFTLGLIKSKPGHTSFLVRVVSTNYNQHAMVFFKTVAQNREYFFITLYGRTKELTSELKENFIRFSKSLGLPENHIVFPVPIDQCIDG

Experiments:
[1] = molecular target: T2, recombinant human fibronectin fragment FN7B8 (human, UniProt P02751 1173-1448); assay: ELISA: FN7B8 coated, mutein titrated, detected via Strep-tag II
T2 construct: no separate number is printed for the protein, so the entry may be a nucleic acid

[2] = molecular target: T2, recombinant human fibronectin fragment …; assay: SPR (BIAcore X), FN7B8 amine-coupled (about 500 RU), mutein as analyte
Text: (§1) FIG. 13 depicts the kinetic real time analysis of Lcn2 mutein N9B measured on a Biacore instrument. FN7B8 was coupled via amine chemistry to a CMD 200 m sensor chip (ΔRU=500) and the purified Lcn2 mutein was applied at varying concentrations. The measured signal is shown as a grey line whereas the curve fit is depicted as a black line in each case.
as §1, with “14” for “13”, “N7E” for “N9B”
Real time analysis of Lcn2 muteins was performed on a BIAcore X system (BIAcore, Uppsala, Sweden) using HBS/ET (20 mM Hepes, pH 7.5, 150 mM NaCl, 1 mM EDTA containing 0.005% (v/v) Tween 20) as running buffer. 200 μg/ml solution of recombinant FN7B8 in 10 mM Na-acetate, pH 4.0 was immobilized on a CMD 200 m Sensorchip (XanTec bioanalytics, Duesseldorf, Germany) using standard amine coupling chemistry (Biacore, Uppsala, Sweden), resulting in a ligand density of about 500 resonance units (RU). The purified Lcn2 mutein was applied at a flow rate of 25 μl/min at concentrations of 2.5 up to 160 nM. The sensorgrams were corrected by subtraction of the corresponding signals measured for the control channel, which had been activated and blocked with ethanolamine.

[3] = molecular target: T3, recombinant fibronectin single domain ED-B (human); assay: SPR (BIAcore X), ED-B immobilised by amine coupling, Lcn2 mutein injected at 0 to 160 nM, 1:1 model
T3 construct: the entry may be a nucleic acid; also called extra domain-B; extra-domain B
Description: (§2) FIG. 27 depicts the kinetic real time analysis of Lcn2 variants N7A (A), N7E (B), N9B (C) and N10D (D) measured on a Biacore X instrument. The single fibronectin domain ED-B was coupled via amine chemistry to a CMD 200 m sensor chip (ΔRU=180) and the purified Lcn2 variants were applied at varying concentrations. The measured signals are shown as traces together with the curve fits.
(§3) Real time interaction analysis of Lcn2 muteins was performed on a BIAcore X instrument using HBS/ET (20 mM Hepes, pH 7.5, 150 mM NaCl, 1 mM EDTA containing 0.005% (v/v) Tween 20) as running buffer. 100 μg/ml solution of recombinant ED-B in 10 mM Na-acetate, pH 4.0 was immobilized on a CMD 200 m Sensorchip using standard amine coupling chemistry, resulting in a ligand density of about 180 resonance units (RU). The purified Lcn2 mutein was applied at a flow rate of 25 μl/min at concentrations of 2.5 up to 160 nM. The sensorgrams were corrected by subtraction of the corresponding signals measured for the control channel, which had been activated and blocked with ethanolamine. […] In the case of N10D the heterogeneous analyte competing reaction model was used for data fitting, resulting in two sets of kinetic constants.

[4] = molecular target: T4, BSA (bovine, UniProt P02769 25-607); assay: ELISA on coated protein
T4 construct: also called bovine serum albumin

[5] = molecular target: T5, recombinant human fibronectin fragment FN789 (human, UniProt P02751 1173-1539); assay: ELISA on coated protein
T5 construct: the entry may be a nucleic acid

[6] = molecular target: T3, recombinant fibronectin single domain …; assay: SPR (BIAcore X), ED-B amine-coupled (about 180 RU), mutein as analyte
Description: as §2, §3

[7] = molecular target: T3, recombinant fibronectin single domain …; assay: SPR (BIAcore X), ED-B amine-coupled; heterogeneous analyte competing reaction model, first set
Description: as §3

[8] = molecular target: T3, recombinant fibronectin single domain …; assay: SPR (BIAcore X), ED-B amine-coupled; heterogeneous analyte competing reaction model, second set
Description: as §3

[9] = molecular target: T6, Trx-Aβ28 fusion protein (Escherichia coli (strain K12), UniProt P0AA25 1-76 = thioredoxin, Biotin-labelled through an NHS ester (2:1) in the capture and competitive ELISAs; unlabeled in the direct ELISA and as competitor.); assay: capture ELISA: mutein captured via Strep-tag II, biotinylated Trx-Aβ28 titrated
T6 construct: the entry may be a nucleic acid; also called TrxAbeta28H6
Description: (§4) FIG. 19 depicts the binding activity of the Lcn2 muteins H1GA, H1GV, and H1-G1 in capture ELISAs with the biotinylated Aβ targets Aβ40 (A) and Trx-Aβ28 (B). StrepMAB-Immo was immobilized at 10 μg/ml on microtitre plates and employed for capturing of 1 μM Lcn2 muteins via the Strep-tag H. Binding of the biotinylated targets, applied in a dilution series, was then detected by incubation with ExtrAvidin/AP and a subsequent chromogenic reaction with pNPP. […] The data were fitted to a monovalent binding model.

[10] = molecular target: T1, ovalbumin; assay: capture ELISA: 1 µM Lcn2 protein captured via Strep-tag II on coated StrepMAB-Immo, biotinylated target titrated, ExtrAvidin/AP + pNPP
Description: (§5) FIG. 5 depicts the binding activity of the Lcn2 muteins H1-G1, S1-A4, and US7 in capture ELISAs with different biotinylated Aβ targets. StrepMAB-Immo at 10 μg/ml was immobilized on microtitre plates and employed for capturing of 1 JAM Lcn2 muteins via the Strep-tag H. In figures A to C the binding of the Lcn2 muteins S1-A4 and US7 to (A) biotinylated Aβ40, (B) biotinylated Trx-Aβ28, and (C) biotinylated MBP-Aβ40 are shown. Binding was detected by incubation with ExtrAvidin/AP and a subsequent chromogenic reaction with pNPP. Ovalbumin (Ova), thioredoxin (Trx), and maltose binding protein (MBP) were used as negative controls. Additionally, binding of wild-type (wt) lipocalin was tested. The data were fitted to a monovalent binding model.
(§6) For selective capturing of the Lcn2 muteins carrying the C-terminal Strep-tag II (Schmidt and Skerra (2007) Nat. Protoc. 2, 1528-1535), a 96-well MaxiSorp polystyrene microtitre plate (Nunc, Langenselbold, Germany) was coated with 10 μg/mL StrepMAB-Immo (IBA, Göttingen, Germany) in PBS over night at 4° C. and blocked with 3% (w/v) BSA in PBS/T at room temperature for 1 h. After 3 washing steps with PBS/T, 50 μL of a 1 μM solution of the purified Lcn2 muteins from Example 7 were applied to all wells for 1 h. After washing, 50 μL of a dilution series of the biotinylated targets Aβ40, MBP-Aβ40 or Trx-Aβ28 from Example 2 were added and incubated for 1 h whereby the biotinylated forms of Ova, MBP and Trx from Example 2 served as negative control proteins. The wells were washed again and bound conjugate was detected with 50 μL of ExtrAvidin/AP conjugate (Sigma-Aldrich, Steinheim, Germany) diluted 1:5000 in PBS/T for 1 h, followed by signal development in the presence of 100 μL 0.5 mg/mL p-nitrophenyl phosphate (AppliChem, Darmstadt, Germany) in 100 mM Tris/HCl, pH 8.8, 100 mM NaCl, 5 mM MgCl₂.

[11] = molecular target: T6, Trx-Aβ28 fusion protein; assay: direct ELISA: Trx-Aβ28 coated, mutein titrated, detected via Strep-tag II
Description: The Aβ targets Trx-Aβ28 and MBP-Aβ40 as well as the control protein maltose binding protein (MBP) were immobilized at 2 μM in PBS over night. Bound Lcn2 muteins were detected via their Strep-tag II using Streptavidin/AP followed by a chromogenic reaction with pNPP. As a control, the binding of wild-type (wt) lipocalin was tested. The data were fitted to a monovalent binding model.
Alternatively, for a “direct” ELISA, 2 μM unlabeled Aβ40 target from Example 2 was adsorbed onto a 96-well MaxiSorp polystyrene microliter plate (Nunc, Langenselbold, Germany) and incubated with the purified Lcn2 mutein, which was detected via the Strep-tag II using a 1:1500 dilution of Streptavidin/AP conjugate (GE Healthcare UK Ltd, Buckinghamshire, UK). As a control, 2 μM MBP from Example 2 was adsorbed onto the ELISA plate. Absorption at 405 nm was measured in a SpectraMax 250 reader (Molecular Devices, Sunnyvale, USA).

[12] = molecular target: T6, Trx-Aβ28 fusion protein; assay: capture ELISA: mutein captured, biotinylated Trx-Aβ28 titrated
Description: as §5, §6

[13] = molecular target: T7, biotinylated Aβ40 peptide (human, C-terminal biotin group attached via a lysine spacer); assay: capture ELISA: mutein captured via Strep-tag II, biotinylated Aβ40 titrated
T7 construct: Synthetic peptide (Peptide Speciality Laboratory) with a C-terminal biotin on a lysine spacer; used in the capture ELISAs
Description: as §4

[14] = molecular target: T7, biotinylated Aβ40 peptide; assay: capture ELISA: mutein captured via Strep-tag II on StrepMAB-Immo, biotinylated Aβ40 titrated
Description: as §5, §6

T3 sequence (chain, as listed by the source limits assumed): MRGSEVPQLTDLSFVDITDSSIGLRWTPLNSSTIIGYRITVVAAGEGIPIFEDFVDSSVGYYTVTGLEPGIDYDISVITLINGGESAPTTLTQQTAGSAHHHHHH
T2 sequence (P02751 other isoform, or with tags, fused parts or gaps limits assumed): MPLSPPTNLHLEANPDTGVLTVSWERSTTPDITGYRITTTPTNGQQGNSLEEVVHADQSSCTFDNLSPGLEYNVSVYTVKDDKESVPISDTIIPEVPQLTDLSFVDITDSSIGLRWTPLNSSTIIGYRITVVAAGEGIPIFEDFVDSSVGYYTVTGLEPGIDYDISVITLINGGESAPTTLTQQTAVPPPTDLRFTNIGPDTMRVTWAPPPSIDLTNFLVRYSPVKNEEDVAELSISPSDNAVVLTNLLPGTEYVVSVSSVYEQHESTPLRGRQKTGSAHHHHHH
T4 sequence (P02769 25-607 limits assumed): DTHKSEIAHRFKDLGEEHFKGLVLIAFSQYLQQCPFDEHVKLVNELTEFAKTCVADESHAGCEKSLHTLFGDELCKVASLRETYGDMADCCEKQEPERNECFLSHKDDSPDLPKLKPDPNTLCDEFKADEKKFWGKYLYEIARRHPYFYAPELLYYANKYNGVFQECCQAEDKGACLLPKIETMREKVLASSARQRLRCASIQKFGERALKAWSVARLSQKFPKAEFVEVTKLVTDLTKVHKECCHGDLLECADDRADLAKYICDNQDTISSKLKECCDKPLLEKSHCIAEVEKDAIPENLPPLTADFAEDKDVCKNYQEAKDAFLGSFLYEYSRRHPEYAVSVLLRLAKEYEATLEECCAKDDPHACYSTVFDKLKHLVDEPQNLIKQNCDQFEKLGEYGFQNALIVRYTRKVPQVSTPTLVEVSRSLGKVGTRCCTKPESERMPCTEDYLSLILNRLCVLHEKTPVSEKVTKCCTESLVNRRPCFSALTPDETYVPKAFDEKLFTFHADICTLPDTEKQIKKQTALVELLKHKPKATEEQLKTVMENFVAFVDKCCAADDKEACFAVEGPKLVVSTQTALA
T7 sequence (peptide, as listed by the source): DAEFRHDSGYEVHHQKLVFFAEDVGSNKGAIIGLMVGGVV
T5 sequence (P02751 other isoform, or with tags, fused parts or gaps limits assumed): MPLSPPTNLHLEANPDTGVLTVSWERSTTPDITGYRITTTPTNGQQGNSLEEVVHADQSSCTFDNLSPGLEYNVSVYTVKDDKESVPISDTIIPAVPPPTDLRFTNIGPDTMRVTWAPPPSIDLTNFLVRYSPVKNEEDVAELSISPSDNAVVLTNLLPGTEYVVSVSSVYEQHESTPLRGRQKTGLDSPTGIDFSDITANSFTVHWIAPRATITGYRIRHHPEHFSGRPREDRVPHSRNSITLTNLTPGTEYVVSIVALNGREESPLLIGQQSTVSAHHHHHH

| Binder | Kd [1] | Kd [2] | koff [2] | kon [2] | Kd [3] | binding result [4] | binding result [5] | Kd [6] | koff [6] | kon [6] | koff [7] | kon [7] | koff [8] | kon [8] | Kd [9] | binding result [10] | Kd [11] | Kd [12] | Kd [13] | Kd [14] |
| --- | --- | --- | --- | --- | --- | --- | --- | --- | --- | --- | --- | --- | --- | --- | --- | --- | --- | --- | --- | --- |
| B1 | 14.8 nM | 5.8 nM | 0.026 s⁻¹ | 4.6e+06 M⁻¹ s⁻¹ | 120 nM | no binding | no binding | 127 nM | 0.138 s⁻¹ | 1.8e+06 M⁻¹ s⁻¹ |  |  |  |  |  |  |  |  |  |  |
| B2 | 51.2 nM | 38 nM | 0.058 s⁻¹ | 1.5e+06 M⁻¹ s⁻¹ |  | no binding | no binding |  |  |  | 0.064 s⁻¹ | 621000 M⁻¹ s⁻¹ | 0.00335 s⁻¹ | 29400 M⁻¹ s⁻¹ |  |  |  |  |  |  |
| B3 |  |  |  |  |  |  |  |  |  |  |  |  |  |  | 24.4 nM | no binding | 290 nM | 24.3 nM | 21.5 nM | 16.2 nM |
| B4 | 30 nM | 7.2 nM | 0.03 s⁻¹ | 4.1e+06 M⁻¹ s⁻¹ | 17 nM |  |  | 17.3 nM | 0.054 s⁻¹ | 3.1e+06 M⁻¹ s⁻¹ |  |  |  |  |  |  |  |  |  |  |
